Consider one molecule from PMC5715787, “Structural basis for antibody recognition of the NANP repeats in Plasmodium falciparum circumsporozoite protein” (Proceedings of the National Academy of Sciences of the …, 2017).

Broadly, the Kd is the free concentration of one partner at which half of the binding sites on the other are occupied at equilibrium, for simple one-to-one binding. A low value points to higher affinity. By stoichiometry N is commonly meant the number of molecules, sites or subunits per partner or assembly.

This test addresses T1, Ac-…-NH2 peptide (P. falciparum).
T1 sequence (peptide, N-terminal acetyl group; C-terminal NH2 group (amide)): NPNVDPNANPNV
As to the kind of experiment: ITC; MicroCal Auto-iTC200; triplicate (or duplicate) experiments; details in SI. On the technique in general: ITC needs no label: the signal is the heat of the interaction.

B1: Fab317 (Fab, V domains shown)
VH: QMQLVESGGGVVQPGRSLRLSCTASGFTFSTYAMHWVRQSPGQGLQWVAVISYHSTNKYYEDSVRGRFTISRDNSKNTLYLQMNSLRAEDTAVYYCARDGYSSSFFDFWGQGTLVTVSS
VL: DIQMTQSPSTLSASVGDRVAITCRASQSISRWLAWYQQQPGKAPKLLMSGASVLESGVPSRFSGSGSGTEFTLTISSLQPDDFATYYCQHYNSYFVTFGQGTKVEIK
Molecule B1 showed a Kd of 12.1 µM, a dH of -9.66 kcal/mol and a stoichiometry N of 1.72.
